Here are results for four molecules from patent US20090209006 (published 2009).

One may read the IC50 as the concentration at which inhibition is half-maximal. Low values mean higher potency, high ones lower potency. By Kd is commonly meant the equilibrium constant for the complex coming apart. A lower Kd goes with tighter binding.

Assay [1] has as its target ZTNF4 (BLyS/BAFF) (human). The assay can be described thus: competition, 125I-ZTNF4 binding to TACI-coated plates.
The target in assay [2] is ZTNF4 (BLyS/BAFF) (human). The assay can be described thus: other, solution radioligand binding with precipitation.

B1: TACI (d1-29, d120-154)-Fc5 (protein)
chain: MDAMKRGLCCVLLLCGAVFVSLSQEIHAELRRFRRAMRSCPEEQYWDPLLGTCMSCKTICNHQSQRTCAAFCRSLSCRKEQGKFYDHLLRDCISCASICGQHPKQCAYFCENKLRSPVNLPPELREPKSSDKTHTCPPCPAPEAEGAPSVFLFPPKPKDTLMISRTPEVTCVVVDVSHEDPEVKFNWYVDGVEVHNAKTKPREEQYNSTYRVVSVLTVLHQDWLNGKEYKCKVSNKALPSSIEKTISKAKGQPREPQVYTLPPSRDELTKNQVSLTCLVKGFYPSDIAVEWESNGQPENNYKTTPPVLDSDGSFFLYSKLTVDKSRWQQGNVFSCSVMHEALHNHYTQKSLSLSPGK
In the assay with ZTNF4 (BLyS/BAFF) [1], B1 gave an IC50 of 2.21 nM. In the assay with ZTNF4 (BLyS/BAFF) [2], this molecule returned a Kd of 0.092 nM.

B2: TACI (d1-29, d107-154)-Fc5 (protein)
chain: MDAMKRGLCCVLLLCGAVFVSLSQEIHAELRRFRRAMRSCPEEQYWDPLLGTCMSCKTICNHQSQRTCAAFCRSLSCRKEQGKFYDHLLRDCISCASICGQHPKQCAYFCENEPKSSDKTHTCPPCPAPEAEGAPSVFLFPPKPKDTLMISRTPEVTCVVVDVSHEDPEVKFNWYVDGVEVHNAKTKPREEQYNSTYRVVSVLTVLHQDWLNGKEYKCKVSNKALPSSIEKTISKAKGQPREPQVYTLPPSRDELTKNQVSLTCLVKGFYPSDIAVEWESNGQPENNYKTTPPVLDSDGSFFLYSKLTVDKSRWQQGNVFSCSVMHEALHNHYTQKSLSLSPGK
The molecule B2 came in with an IC50 in the assay with ZTNF4 (BLyS/BAFF) [1] of 4.95 nM. Moreover, in the assay with ZTNF4 (BLyS/BAFF) [2], the Kd is 0.121 nM.

B3: TACI (d1-29, d111-154)-Fc5 (protein)
chain: MDAMKRGLCCVLLLCGAVFVSLSQEIHAELRRFRRAMRSCPEEQYWDPLLGTCMSCKTICNHQSQRTCAAFCRSLSCRKEQGKFYDHLLRDCISCASICGQHPKQCAYFCENKLRSEPKSSDKTHTCPPCPAPEAEGAPSVFLFPPKPKDTLMISRTPEVTCVVVDVSHEDPEVKFNWYVDGVEVHNAKTKPREEQYNSTYRVVSVLTVLHQDWLNGKEYKCKVSNKALPSSIEKTISKAKGQPREPQVYTLPPSRDELTKNQVSLTCLVKGFYPSDIAVEWESNGQPENNYKTTPPVLDSDGSFFLYSKLTVDKSRWQQGNVFSCSVMHEALHNHYTQKSLSLSPGK
In the assay with ZTNF4 (BLyS/BAFF) [1], B3 showed an IC50 of 2.31 nM. Moreover, the Kd with ZTNF4 (BLyS/BAFF) [2] was found to be 0.115 nM.

B4: TACI (d1-29)-Fc5 (protein)
chain: MDAMKRGLCCVLLLCGAVFVSLSQEIHAELRRFRRAMRSCPEEQYWDPLLGTCMSCKTICNHQSQRTCAAFCRSLSCRKEQGKFYDHLLRDCISCASICGQHPKQCAYFCENKLRSPVNLPPELRRQRSGEVENNSDNSGRYQGLEHRGSEASPALPGLKEPKSSDKTHTCPPCPAPEAEGAPSVFLFPPKPKDTLMISRTPEVTCVVVDVSHEDPEVKFNWYVDGVEVHNAKTKPREEQYNSTYRVVSVLTVLHQDWLNGKEYKCKVSNKALPSSIEKTISKAKGQPREPQVYTLPPSRDELTKNQVSLTCLVKGFYPSDIAVEWESNGQPENNYKTTPPVLDSDGSFFLYSKLTVDKSRWQQGNVFSCSVMHEALHNHYTQKSLSLSPGK
As to B4, in the assay with ZTNF4 (BLyS/BAFF) [1], the IC50 is 2.07 nM. The same molecule displayed a Kd in the assay with ZTNF4 (BLyS/BAFF) [2] of 0.134 nM.
